In publication PMC5572738:

Target: T1, bacteriorhodopsin (BR) from Halobacterium salinarum (Halobacterium salinarum), P02945
T1 chain: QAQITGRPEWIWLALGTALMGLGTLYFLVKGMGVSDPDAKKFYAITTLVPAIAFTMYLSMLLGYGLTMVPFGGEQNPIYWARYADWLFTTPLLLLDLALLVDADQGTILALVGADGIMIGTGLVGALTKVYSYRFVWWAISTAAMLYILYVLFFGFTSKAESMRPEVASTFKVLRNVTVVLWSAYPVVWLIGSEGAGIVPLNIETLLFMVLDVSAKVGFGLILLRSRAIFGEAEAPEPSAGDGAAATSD
Experiment: SEC; Sephadex 200 column, BR solubilised in DDM; elution position compared with Blue Dextran, alcohol dehydrogenase (150 kDa) and bovine serum albumin (66 kDa)
Settings: remark: other sources report otherwise

stoichiometry N: 3
B1: bacteriorhodopsin (BR) from Halobacterium salinarum, P02945 14-262 (natural protein)
chain: T1 chain
modifications: here or on the partner: retinal chromophore attached in a Schiff base linkage to a lysine residue in the seventh helix; retinal chromophore attached in a Schiff base linkage to a lysine residue in the seventh helix
